Laboratory results as given in article PMC8428573.

Biological target: SARS-CoV-2 spike protein extracellular domain (residues 14 to 1209, S1 and S2 without the transmembrane domain) (SARS-CoV-2) (UniProt P0DTC2)
Experiment: SEC

SARS-CoV-2 spike protein extracellular domain (residues 14 to 1209, S1 and S2 without the transmembrane domain) (from UniProt P0DTC2 14-1209) (domain or fragment)
stoichiometry N: 3
